The values that follow come from paper PMC10786891, “Massively parallel profiling of RNA-targeting CRISPR-Cas13d”.

Positions count from the first letter of the chain named. In names and notes the source's numbering stands.

T1: EsCas13d, nuclease-dead (Eubacterium siraeum, UniProt B0MS50, R295A;H300A;R849A;H854A)
T1 sequence: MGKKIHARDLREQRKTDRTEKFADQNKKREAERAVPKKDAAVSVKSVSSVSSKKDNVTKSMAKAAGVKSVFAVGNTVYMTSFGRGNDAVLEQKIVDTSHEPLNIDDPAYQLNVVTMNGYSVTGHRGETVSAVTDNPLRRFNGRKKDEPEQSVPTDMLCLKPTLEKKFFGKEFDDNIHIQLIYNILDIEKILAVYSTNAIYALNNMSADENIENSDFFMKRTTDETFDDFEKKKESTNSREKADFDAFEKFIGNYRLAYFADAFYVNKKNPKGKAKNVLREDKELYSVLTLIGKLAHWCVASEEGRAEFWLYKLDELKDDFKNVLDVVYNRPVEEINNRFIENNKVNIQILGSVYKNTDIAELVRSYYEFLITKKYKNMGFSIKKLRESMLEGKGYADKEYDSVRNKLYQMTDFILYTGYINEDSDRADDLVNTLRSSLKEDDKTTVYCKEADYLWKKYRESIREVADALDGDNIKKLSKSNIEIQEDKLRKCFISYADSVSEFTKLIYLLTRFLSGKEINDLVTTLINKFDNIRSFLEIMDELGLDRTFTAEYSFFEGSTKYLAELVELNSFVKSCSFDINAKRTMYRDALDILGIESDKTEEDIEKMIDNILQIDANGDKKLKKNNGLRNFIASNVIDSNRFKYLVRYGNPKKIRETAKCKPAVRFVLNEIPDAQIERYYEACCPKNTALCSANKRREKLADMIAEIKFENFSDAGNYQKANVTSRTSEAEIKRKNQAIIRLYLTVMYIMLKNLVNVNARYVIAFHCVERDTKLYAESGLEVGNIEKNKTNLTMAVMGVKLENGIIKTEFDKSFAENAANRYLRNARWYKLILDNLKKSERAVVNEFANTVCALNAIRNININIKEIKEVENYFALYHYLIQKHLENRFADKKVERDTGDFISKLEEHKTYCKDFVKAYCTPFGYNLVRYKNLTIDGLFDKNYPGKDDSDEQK

B1: target 1 insG 3' of 10,insG 3' of 7 (mixed)
RNA 1: CACCCGUGCAAAAAUGCAGGGGUCUAAAACUGAGCGGAUAACCUCUCUAUGG
RNA 2: GGGAAUGGAUCCACAUCUACGAAUUCGUACCAUAGAGAGGUUGAUCGCGCUCACCGAGAUCGGAAGAGCACACGU
B2: target 1 insU 3' of 17,insU 3' of 2 (mixed)
RNA 1: B1 RNA 1
RNA 2: GGGAAUGGAUCCACAUCUACGAAUUCGUACCAUAGUAGAGGUUAUCCGCUCUACCGAGAUCGGAAGAGCACACGU
B3: target 1 G12U,G13C (mixed)
RNA 1: B1 RNA 1
RNA 2: GGGAAUGGAUCCACAUCUACGAAUUCGUACCAUAGAGACUUUAUCCGCUCACCGAGAUCGGAAGAGCACACGU
B4: target 1 insU 3' of 21,insG 3' of 20 (mixed)
RNA 1: B1 RNA 1
RNA 2: GGGAAUGGAUCCACAUCUACGAAUUCGUACCUAGUAGAGAGGUUAUCCGCUCACCGAGAUCGGAAGAGCACACGU
B5: target 1 insA 3' of 22,insA 3' of 15 (mixed)
RNA 1: B1 RNA 1
RNA 2: B4 RNA 2 with C31A, U32C, G34U, U35A, A36G, G37A, A38G, G39A
B6: target 1 C7A,A18U (mixed)
RNA 1: B1 RNA 1
RNA 2: B3 RNA 2 with A34U, C39G, U40G, C45A
B7: target 1 G13C,A14G (mixed)
RNA 1: B1 RNA 1
RNA 2: B3 RNA 2 with A38G, U40G
B8: target 1 insU 3' of 14,insG 3' of 9 (mixed)
RNA 1: B1 RNA 1
RNA 2: B1 RNA 2 with G39U, U41G, G43U, U45G, C46U, G47C
B9: target 1 complement block 4-14 (mixed)
RNA 1: B1 RNA 1
RNA 2: GGGAAUGGAUCCACAUCUACGAAUUCGUACCAUAGAGUCCAAUAGGCGUCACCGAGAUCGGAAGAGCACACGU
B10: target 1 insC 3' of 18,insG 3' of 6 (mixed)
RNA 1: B1 RNA 1
RNA 2: B2 RNA 2 with G35C, U36G, C49G, U50C, C51U, U52C
B11: target 1 A16G,A18U (mixed)
RNA 1: B1 RNA 1
RNA 2: B3 RNA 2 with A34U, A36G, C39G, U40G
B12: target 1 insA 3' of 8,insC 3' of 5 (mixed)
RNA 1: B1 RNA 1
RNA 2: B1 RNA 2 with G43A, A44U, U45A, G47C, C48G, G49C
B13: target 1 G17U,A18U (mixed)
RNA 1: B1 RNA 1
RNA 2: B3 RNA 2 with A34U, G35U, C39G, U40G
B14: target 1 insG 3' of 9,insG 3' of 6 (mixed)
RNA 1: B1 RNA 1
RNA 2: B1 RNA 2 with G43A, A44G, G47C, C48G
B15: target 1 U3C,U11C (mixed)
RNA 1: B1 RNA 1
RNA 2: B3 RNA 2 with C39G, U40G, U41C, U49C
B16: target 1 insA 3' of 21,insA 3' of 17 (mixed)
RNA 1: B1 RNA 1
RNA 2: B4 RNA 2 with U32A, G34U, U35A, A36G, G37A
B17: target 1 C7G,U11C (mixed)
RNA 1: B1 RNA 1
RNA 2: B3 RNA 2 with C39G, U40G, U41C, C45G
B18: target 1 A9G,U10A (mixed)
RNA 1: B1 RNA 1
RNA 2: B3 RNA 2 with C39G, U40G, U42A, A43G
B19: target 1 C7G,U19G (mixed)
RNA 1: B1 RNA 1
RNA 2: B3 RNA 2 with U33G, C39G, U40G, C45G
B20: target 1 U8A,G12C (mixed)
RNA 1: B1 RNA 1
RNA 2: B3 RNA 2 with C39G, U40C, U44A
B21: target 1 insA 3' of 4,insG 3' of 3 (mixed)
RNA 1: B1 RNA 1
RNA 2: B1 RNA 2 with G43A, A44U, U45C, G49A, C50U, U51G
B22: target 1 insU 3' of 5,insA 3' of 5 (mixed)
RNA 1: B1 RNA 1
RNA 2: B1 RNA 2 with G43A, A44U, U45C, C48U, G49A
B23: target 1 C2A,A20U (mixed)
RNA 1: B1 RNA 1
RNA 2: B3 RNA 2 with A32U, C39G, U40G, C50A
B24: target 1 A9C,A20U (mixed)
RNA 1: B1 RNA 1
RNA 2: B3 RNA 2 with A32U, C39G, U40G, A43C
B25: target 1 del3,del13 (mixed)
RNA 1: B1 RNA 1
RNA 2: GGGAAUGGAUCCACAUCUACGAAUUCGUACCAUAGAGAGUUAUCCGCCACCGAGAUCGGAAGAGCACACGU
B26: target 1 U10A,U19C (mixed)
RNA 1: B1 RNA 1
RNA 2: B3 RNA 2 with U33C, C39G, U40G, U42A
B27: target 1 G5C,G17U (mixed)
RNA 1: B1 RNA 1
RNA 2: B3 RNA 2 with G35U, C39G, U40G, G47C

In this series the target is T1, EsCas13d, nuclease-dead. Kind of series: crRNA (strand 1, pre-loaded); Mg2+; 40 mM Tris-HCl pH 7.5, 150 mM NaCl, 6 mM MgCl2, 1 mM DTT, 0.1% Tween-20, 0.2 mg/ml BSA; 25 C; 10 min per concentration, then washed. The conditions noted are these: tags: His6-TwinStrep-SUMO cleaved; N-terminal SNAP kept (SNAP-Surface 488); label: 3' end held by stalled T7 RNA polymerase.
The term Kd denotes the concentration at which binding is half-saturated. A higher Kd goes with weaker binding. As for B1, the Kd worked out at 12.5 ± 0.6 nM. B2 showed a Kd of 15.1 ± 2.2 nM.

Molecule B3 had a Kd of 17.5 ± 1.3 nM. The molecule B4 displayed a Kd of 40 ± 11 nM. In the case of B5 it was 7.9 ± 0.4 nM; in that of B6, 36.4 ± 2.8 nM; in that of B7, 31 ± 5 nM. In the case of B8 it was 28.2 ± 2.9 nM.

For the molecule B9, binding was characterised by a dissociation constant (Kd) of 63 ± 31 nM. Molecule B10 displayed a Kd of 58 ± 10 nM. B11 yielded a Kd of 86 ± 13 nM. In the case of B12 it was 9.4 ± 0.6 nM.

B13 came in with a Kd of 29.8 ± 2.8 nM.

In the case of B14, binding was put at a Kd of 11.2 ± 1.2 nM. In the case of B15 it was 51 ± 8 nM. As for B16, binding was characterised by a dissociation constant (Kd) of 41 ± 5 nM. Molecule B17 displayed a Kd of 14.6 ± 0.6 nM. Consider B18, for which the Kd came out at 15.5 ± 0.6 nM. In the case of B19 it was 34 ± 10 nM; in that of B20, 16.5 ± 1.2 nM; in that of B21, 6.5 ± 0.4 nM. B22 displayed a Kd of 13.9 ± 0.6 nM. Molecule B23 came in with a Kd of 30.1 ± 1.5 nM. For the molecule B24, the dissociation constant (Kd) amounted to 80 ± 40 nM. Turning to B25, the affinity, expressed as Kd, was 7.9 ± 0.4 nM.

Consider B26, for which the dissociation constant (Kd) amounted to 35 ± 4 nM. On to B27, for which the Kd came to 28.1 ± 2 nM.
